Measurements published in article PMC10663505 (Nature Communications, 2023).

Biological target: the molecule itself
Test: native gel or EMSA

B1: phosphorylated TBK1 (Native-PAGE of Supplementary Fig. S8a) (enzyme, UniProt Q9WUN2 1-729, looked up)
chain: MQSTSNHLWLLSDILGQGATANVFRGRHKKTGDLYAVKVFNNISFLRPVDVQMREFEVLKKLNHKNIVKLFAIEEETTTRHKVLIMEFCPCGSLYTVLEEPSNAYGLPESEFLIVLRDVVGGMNHLRENGIVHRDIKPGNIMRVIGEDGQSVYKLTDFGAARELEDDEQFVSLYGTEEYLHPDMYERAVLRKDHQKKYGATVDLWSVGVTFYHAATGSLPFRPFEGPRRNKEVMYKIITGKPSGAISGVQKAENGPIDWSGDMPLSCSLSQGLQALLTPVLANILEADQEKCWGFDQFFAETSDVLHRMVIHVFSLQHMTAHKIYIHSYNTAAVFHELVYKQTKIVSSNQELIYEGRRLVLELGRLAQHFPKTTEENPIFVTSREQLNTVGLRYEKISLPKIHPRYDLDGDASMAKAVTGVVCYACRTASTLLLYQELMRKGVRWLVELVKDDYNETVHKKTEVVITLDFCIRNIEKTVKVYEKLMKVNLEAAELGEISDIHTKLLRLSSSQGTIESSLQDISSRLSPGGLLADTWAHQEGTHPRDRNVEKLQVLLNCITEIYYQFKKDKAERRLAYNEEQIHKFDKQKLYYHATKAMSHFSEECVRKYEAFKDKSEEWMRKMLHLRKQLLSLTNQCFDIEEEVSKYQDYTNELQETLPQKMLAASGGVKHAMAPIYPSSNTLVEMTLGMKKLKEEMEGVVKELAENNHILERFGSLTMDGGLRNVDCL
modifications: phosphorylated (detected with the anti-phosphorylated TBK1 antibody)
notes: probably endogenous mouse TBK1
B1 was tested, and the “stoichiometry N” value was 2.
